# According to a protein production outcome set (Wang et al. 2014):
# Experiment: label from the status in PepcDB records
row,Sequence,protein production
1,MRKFKISVLLKLGFYCLFLSIGLEMQARKFVHPGILHTTKSIERMRAQIADKEYPAYGSFELLKSHHCSQADYQPFGPFEIISRDGEFRHTKSKMEQDFSAVYQNALMWVLTGEKTHAEKSLELLLGYAGTLKRIPETNDAPLLVGLEGLKIIYATEILRHTYKKMTVVQFNEISRMIREVFLPVMENFYHRKPYTNGNWGPIVTKAYMAAAILWDNEEMYNKAVDFYLHANDNGTIAHYISGDTGQIQESGRDQGHSMLGIGALATVCEIAWQQGDDLYSALDNRLMKGFEYVAKYNLGYNVPFAVWKDVTGKYSNWTEISNKGRGRYMPIFEMTYNHFVIRKGMQMPYTEQVLRQIRPEGYDRDQPAFGSLLFNEAGTKKNYVDLVNPFVDSHRSRWFFFSSACRPFGMVSLSPDTDTEHSWGSGYLYDSKQIRCFSHVHNWQMSGVAVMPTVGEFKGHLGMNAYQSAFTHDGEIAKPGYHKVKLTDYDITAELTSTMRVGFHCYTFPKSDASYILFDTGAFLAHGPTAYSEVWKVSDKEIAGWEMMERTGRRPKDTPVYFYAQLSKPMDKVVSWREGRIESNSNPERISGKNAGMAVRFKTEKDEKVMLKVAISYVSVEQARKNMLTELSGWDFEQVKQSSFSEWNDWLGRIEVEGGSREQQIKLYTDLWHALLGRHVVSDADGHYMDMTSDFPRIRQIPLGEDGKPLYNHHNFDAWWGSHWSLNILWSMAYPEVMDNFCNTMIDMYQNGGLIPRGPSGGNYTYVMIGDPAVSFFASAYNKGIRNYDAELAYEGLRKNAFVGGIRDHAGYEHSKTAYSGGMKYYEEWGYVPDGRKDVEGMHTTGASMTLEYAYQDWCLAQMAKTMGKLQDYEFFMKRSKNYRNLWNPESGYMQPRGEDGNWLPYFDPLELTEKGGFCESNSAIYSHYVPHDMAGLIELYGGADQYVKRLNANFEKSESYGFFRSNKTKEGNWTDYGNQPGTGMAHLFSYAGAPWLTQKWVRKVKAAYCDVTPYGGYRDDEDQGQMGALGVLMAIGLFEVDGGCAEKPFYEITSPLFDKVTIHLDNRYYSGKTFQIITKGNSTDNMYIQNASLNGKKWNKCWFYHEDFIKGGTLELKLGAKPNKKWGVEELPPSFISSK,failed
2,MRILLTTLNAKYIHVNLALRYLRACCRDLPHTFILDEFTINDHPEHIAAAIYRHRPDLVAFSCYIWNIEPTLAVAAILKKVRPELTILCGGPEVSFDTAAFLAQNPQIDLVITGEGEIPFRALLEQLAGQQRPPAGNREEPLTASMYRPAGGRPAPGPVPDPAAIPGLAWRRGAETIVNPPAPPLRDLDTIPFPYQEDLDAAGNELSQRTVYYETSRGCPFACGFCLSSTTEGLRYFSLERVRDDLERLLKAGVREIKFVDRTFNAHKKRALAIWEFLLSRRPRARCYFEIAGDRLDEEMLAHLNRVPPDLFQFEIGVQTIDAGVNARCNRRQDWARLAANTRRLREMGSIRLHLDLIAGLPGETYAGVGESFDAVVALKPHEIQLGFLKLLKGTTLRARADEFGYLFLDRPPYQVLASSAITYEEMLRLHAIEGLLKYYGNSHLADHAFAYLAATAFDGSYFAIYEALAAWWEARGLLRRGHSQRDLFNHLASFAIHLARGIATRVTVPPLPGYHDSILEINSHGDTPASGAEHSGCARNLTPAQLDRFYQLLKFDCLCRDRSRNFPGWMPPSPLTEEERSNWMARITTPRSMEKYMPGLVKESPANLRRHGFIELFPCHPERPEEDNPTIVFFYYGPPGSETRVYYLQAPPLVV,failed
3,MAEELLAPEVIADLKARAISQPLVEHIYTADPSAHVFNGKIYIYPSHDIEAGIPFNDNGDHFGMEDYHVISLDSPDSPAVDNGVALHVKDVAWAERQMWPPDAAHKNGKYYLYFPAKRANGIFQIGVAVGDSPIGPFKAEPEAIKGSYSIDPAVFEDNDGEYYMYYGGIWGGQLQNYRNNQYDANRGEPADNEPALGPIVARLTADMKEFAEAPREIQILDQDGKPLLAGDHDRRFFEASWVHKYNDQYYFSYSTGNTHFLCYATGDNPYGPFTYRGQILTPVIGWTTHHSIAEYQGQWYLFYHDCVLSKGITHLRSVKMAPLTHKADGSIETITPYRD,failed
4,AVGKNKGLSKGGKKGGKKKVVDPFSRKDWYDVKAPNMFQTRQIGKTLVNRTQGQRIASDYLKGRVFEVSLADLQKDIDPERSFRKFRLIAEDVQDRNVLCNFHGMDLTTDKYRSMVKKWQTLIEAIVEAKTVDGYLLRVFCIGFTAKDQQSQRKTCYAQQSQVRKIRARMTDIITNEVSGADLKQLVNKLALDSIAKDIEKSCQRIYPLHDVYIRKVKVLKKPRFDVSKLLELHGDGGGKSVEAVVSSEGAVIDRPEGYEPPVQESV,failed
5,MRLFFSLLILLSFFARATEPVQVFTDDLGRKVTVPAHPKRIVSLHDLDITIPLIELGVPPVASHGRTRPDGSHFIRSGALLTGVDFDNSSIAFIGTADIDIEAIVAAKPDLIITEPTRNTPIERLEKIAPTVSIDHLKGGAPEIYRKLAELTGTQSQLAILERRYQAQINALKATLDSQKITVSVIQANQGKINVMHSYHSLGRVLRDAGFRFPPLIESIPEGGRMDVSAERLPELDADFVFATWRGDTGGKPQDELAAMEKVMPGWCQFLTACRSGRYVLISREEAISNSFASLGLMAAQIQSQIAGRPLPEAK,not failed
6,MKGSRKGESRAKESKPREPGTRRCAKCGRLDFILKKKMGIKSGFTFWNLVFLLTLSCVKGFIYTCGGTLKGLNGTIESPGFPYGYPNGANCTWVIIAEERNRIQIVFQSFALEEEYDYLSLYDGHPHPTNFRTRLTGFHLPPPVTSTKSVFSLRLTSDFAVSAHGFKVYYEELQSSSCGNPGVPPKGVLYGTRFDVGDKIRYSCVTGYILDGHPQLTCIANSVNTASWDFPVPICRAEDACGGTMRGSSGIISSPGFPNEYHNNADCTWTIVAEPGDTISLIFTDFQMEEKYDYLEIEGSEPPTIWLSGMNIPPPIISNKNWLRLHFVTDSNHRYRGFSAPYQVKKAIDFKSRGFKLFPGKDNSNKFSLLNEGGIKTASNLCPDPGEPENGKRFGSDFR,failed
7,MNWIPLEQLLLKLHTPRAVSAAPAIDLGAVQEQALSLAAALQARGVRRLAVHLEDAVELAVALLGAWRAGASVLLPADLQAQTRQRWSSEVDLWLTDQDTPLHQLQASPLAPAELDPDTCQLSLCTSGSSGEPKRIEKNLRQLANEVVALEHLWGADLGQAWIIGSVATQHIYGLLFRVLWPLCAGRPFVRRQLPFPEDLQRASRECPAFAWVASPALLKRMGDNLDWPALSQVRRVFSSGGALPAEAASGLHQRLQQWPTEILGSSETGGIAWRQGPGLWQPFADVRLSQDADGALLIASPYLPAGHVEHTADAARIAADGRFELLGRLDRIVKLEEKRISLPMLEQALASHEWVAEARLGVIEDNRAYLGALLVLSEPGLHALRNQGRRHLTQALRQHLAGHCEALALPRRWRLVRQLPLNSQGKLPQAQVQALLLAPRPQAPEVLEQRQHEEEWQLQLAIPPDLAYFSGHFPQTPVLPGVVQVDWALALGQQLLELPGRFAGMEVLKFQQLVRPGDRIQLNLRFDAQRQKLYFAYLNDGAPCSCGRIVLEASCG,failed
8,MKFGKRHYRPQVDQMDCGVASLAMVFGYYGSYYFLAHLRELAKTTMDGTTALGLVKVAEEIGFETRAIKADMTLFDLPDLTFPFVAHVLKEGKLLHYYVVTGQDKDSIHIADPDPGVKLTKLPRERFEEEWTGVTLFMAPSPD,not failed
9,MAHPPQIRIPATYLRGGTSKGVFFRLEDLPESCRVPGEARDRLFMRVIGSPDPYAAHIDGMGGATSSTSKCVILSKSSQPGHDVDYLYGQVSIDKPFVDWSGNCGNLSTGAGAFALHAGLVDPARIPEDGICEVRIWQANIGKTIIAHVPVSGGQVQETGDFELDGVTFPAAEIVLEFLDPSDDGEDGGAIFPTGNLVDDLEVPGVGTFKATMINAGIPTVFVNAEEIGYRGTELREEINGDPQQLARFERIRVAGALRMGLIKTPEEAATRQHTPKIAFVAPPRDYRTASGKLVAAGDIDLLVRALSMGKLHHAMMGTAAVAIGTAAAIPGTLVNLAAGGGERSAVRFGHPSGTLRVGAEASQANGEWTVTKAIMSRSARILMEGWVRVPGDAF,not failed
10,MKREIQVSVFLTFITLAYYLLNSLALEFLGLGFISIPLTILLPASILFERERPNPISRVTYIFSMLWLVFLIYLLTGWALVQFIWFFLDLPCLKILAVSLAALSVSYGVFRARKIEVKRVEIPFPVEESLRFVQLSDIHLGTVRSAGFLKEVSEAVRRVEAAAVLITGDLLDGSRPVDSSIISSLETGAPIFFVSGNHDTYSGDFRSTVSDAGIMCIDQSVIEFEGIQIIGVGYSMERHSLPAILDLLEFDEDRPVLLLHHLPVDWEDARERGVDLQLSGHTHGGQFYPFNIIVGLMFPFLRGLYSDSGGFLYVSEGTGTWGPPVRLGSSCEITVIDLVPFKEI,failed
11,RYGGDSTMIEMAFNKILIYAFGQFSAYSVWFDNNYLNIVDTIPGYGVFTGVVSKIFDFDRVSGFYDSFTYISNEDYTNVFTLSR,failed
12,MIMHIPKSTYYHKWFIGATLVVPVLPLAAQTSPNLVFIMADQYRGDALGCLGKEPVKTPCLDHLASEGVLFTNAVSSYPVSSPARAMLMTGMYPLHNKVTGNCNSQTAPYGVELPQEARCWSDVLKDMNYRTGYIGKWHLDSPYKPYVDTYNNRGKVAWNEWCPPERRHGFEYWTAYGTYDYHLKPMYWDTTAPRDSFYYVNQWGPAYEADKAIEYIQTQKENKQPFALVVSMNPPHTGYELVPDKYKALYKDIDVEALCAHRPDIPAKGTEMGNYFRNNIRNYYACITGVDEQVGRIIETLKSNGLFENTIIVFTSDHGICMGAHNNAGKDIFYEEAMRIPMIISWPAKIKPRKDDHLMIAFADLYPSLLSLMGFRKEIPETVQTFDLSRHILGKSKKEVVQPYYYVQFDNHATGYRGLRTSTHTFAVHATNGKIDETVLFDRTKDPYQMDNIAGQSPRLVRQFNKQLKAWLLHTNDSFAHYLETVTKLEHHHHHH,not failed
13,GRAPRNGEKVLVEFVSANPTGPLHVGHARQAALGDAICRLYDASGWDVTREFYYNDAGNQIDNLAISVQARGRGIAPDAPDYPADGYKGDYIVEIARDFAARKSVQASDGQPVTATGDLDSLDDIRAFAVAYLRREQDLDLQAFGLAFDNYFLESSLYASGRVQETVDTLVAKGHTYEEGGALWLRTTELGTGDDKDRVMRKSEGGYTYFVPDVAYHKVKWERGFHHAVNIQGSDHHGTVARVRAGLQGLAGIPKDFPAYVLHKMVKVMRGGEEVKISKRAGSYVTMRDLIDWVGRDAVRYFLIQRRADTEFVFDIDLALSKSDENPVYYIQYAHARICTMIGNSGA,failed
14,MEDFYLNSRGLAGYFEAQWFDKFVEDKQVDAITSESKLVPLSFAKSSHCSQVADFITQAVSKNGKPPHALLGVGAALGRNYYELVQRLDSLKQATLVEPSGMLLNGLKQLLVEEQQVELTYIHGLNTLKTVEVDNRELVQNCAHVDLELINQPLEKDTVSKFYDLVVCLNVLDQCESPLRVINALKQATQIGGVLVVSCTYQWNAKHIKDRAEAVDDIKAYFGEDWRFVSEAEHEYRMRFNERYAMQFLSHVVAYVRTT,failed
15,MIMSVCLPWLARCRRFLIVSLAFAMLLLGIWGTLPFSLSDHGTAIAALEDDRYDGNIFVVYAGNGSLVPPRLNLRESFERKLPVILVYYLDDSKDCKQYAFIVSRMQEFYGRVASIIPVSVDSIPDQKRFRRDEPGYYYSGGVPQTVILDKSGKKIFDAQGALKFEVVDDVLRDLFDLLPRSESMELKQRTYNEFNSELVD,failed
16,MIEMAYDDDENSMAIKVWRLYVDLWKLWYKKNERNLNKIDLSITEFTIMRHLIENGPMSMAAIASLINVTPGWITGVVDKMEEKNLVTRNRDSTDRRIIKIAITDRGREVYENAKKNHYAFIRKALAELNENELQQTYVLLQKMMDDVSKLESN,failed
17,MLELKNENLTVQFSELGGQIISIKDKDGIEYLWQGEPTYWSGQAPVLFPICGSLRNDWAIYEPAERPTFTGTIPRHGLVRKMLFKNVKSTENSLEFSISSNEETVKNYPFEFELSINYSLFGKTIRIEYRVKNLEGHRKLPYFIGGHPGFNCPLLDGESYEDYYLEFEKVESCTVPRSFPETGLLDLRDRRPFLENQKTLDLSYKLFEYDAITLDQLASRKVTLKSKNHQKKLSIAFDDFPYLVIWSTTNQSPFIALEPWSGLSTSLEESDIFNAKRNISYVAPKEVDTKYFDIIIE,failed
